The supplement of paper PMC10567573
± gives the standard deviation.

Test: protein stability index of a GFP-peptide fusion (GPS, HEK-293T) (PSI 1-6); higher = more stable
[1] = treatment: DMSO, c terminus: a fixed tail appended
[2] = treatment: MLN4924 1 uM, 8 h, c terminus: a fixed tail appended
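Further: 24-mer peptide tiles fused after GFP, lentivirally expressed, FACS-sorted into six equal bins by GFP/DsRed ratio, decoded by Illumina sequencing, PSI is the read-weighted mean bin number.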

SPDILEEKHCEFKQLALDHFKKTK [ATL3]
protein stability index [1]: 4.79 ± 0.23
protein stability index [2]: 4.79 ± 0.12

IAAAVYIMDTVGNIWVCYASYVVF [SLC19A2]
protein stability index [1]: 2.89 ± 0.13
protein stability index [2]: 2.87 ± 0.27

TDSPWIKPARKRRRRSRKKPSGAL [EHMT1]
protein stability index [1]: 5.2 ± 0.39
protein stability index [2]: 5.22 ± 0.47

FLIVTVAWAAHTRLFQVVGKTDDT [TMEM175]
protein stability index [1]: 2.86 ± 0.12
protein stability index [2]: 3.12 ± 0.23

EELNKEVASNSELVQSSRSEVTEL [KRT16]
protein stability index [1]: 5.51 ± 0.16
protein stability index [2]: 5.55 ± 0.24

QLSAPHCKKLSLELGGKNPAIIFE [ALDH8A1]
protein stability index [1]: 2.8 ± 0.26
protein stability index [2]: 2.9 ± 0.43

WCLVQICEKYLPGYYSEKLEAIQL [TBC1D10A]
protein stability index [1]: 2.74 ± 0.48
protein stability index [2]: 3.57 ± 0.41

QVRIRYLGERRAEPHSLLHLSRLC [SPSB2]
protein stability index [1]: 2.34 ± 0.2
protein stability index [2]: 2.22 ± 0.22

YSIQERRPQLPQVLQHVRLPLLSP [KLHL20]
protein stability index [1]: 3.4 ± 0.18
protein stability index [2]: 3.42 ± 0.32

NPSQKTGQALLTHLYQSSARRYAG [ELAVL3]
protein stability index [1]: 3.58 ± 0.23
protein stability index [2]: 3.4 ± 0.36

FSETHADPHNSRRGFFFSHVGWLL [SCD]
protein stability index [1]: 2.66 ± 0.29
protein stability index [2]: 2.15 ± 0.21

LKMSYSRGLIPVKRGPSSRSGGPP [RBMY1A1]
protein stability index [1]: 2.95 ± 0.25
protein stability index [2]: 3.16 ± 0.37

AKLALFYDWLFFSPDKDSIMNIEP [INTS3]
protein stability index [1]: 2.04 ± 0.34
protein stability index [2]: 1.9 ± 0.43

KNDSLRKRYDGLKYDVKKVEEVVY [TSN]
protein stability index [1]: 3.18 ± 0.22
protein stability index [2]: 3.32 ± 0.33

PAADPPRYTFAPSVSLNKTARPFG [PDLIM7]
protein stability index [1]: 3.54 ± 0.27
protein stability index [2]: 3.64 ± 0.35

FVKILKDFPEEDDPTNWLRCYYYE [NCF4]
protein stability index [1]: 2.25 ± 0.28
protein stability index [2]: 2.55 ± 0.6

FGGQNAHNQIAIYAHQPRTADEIP [FUT8]
protein stability index [1]: 3.43 ± 0.23
protein stability index [2]: 3.65 ± 0.33

TGFLIIILAIIAKEGDCAPEEKIW [MAGEA6]
protein stability index [1]: 2.93 ± 0.65
protein stability index [2]: 2.71 ± 0.61

ELKRLVESRRQQILREFEELHRRL [TRIM39]
protein stability index [1]: 2.44 ± 0.31
protein stability index [2]: 2.72 ± 0.38

ATGFHFNAMTCEGCKGFFRRSMKR [VDR]
protein stability index [1]: 2.63 ± 0.18
protein stability index [2]: 2.9 ± 0.21

GKGEARARLKRSQSFGVASASSIK [SMTNL2]
protein stability index [1]: 4.6 ± 0.43
protein stability index [2]: 4.61 ± 0.38

KRSAPSGPVRSSSGMGGRAPVSRG [RBMX]
protein stability index [1]: 4.59 ± 0.25
protein stability index [2]: 4.57 ± 0.16

ARLMLESEYRSDIINAKSNDGWTP [ASB7]
protein stability index [1]: 2.65 ± 0.28
protein stability index [2]: 3.15 ± 0.15

PALLEATGGAAGAGGAGRGEDEEN [KCTD13]
protein stability index [1]: 5.62 ± 0.24
protein stability index [2]: 5.64 ± 0.24

DTMQNIESTIVELGSIFQQLAHMV [STX5]
protein stability index [1]: 2.47 ± 0.13
protein stability index [2]: 2.52 ± 0.38

VIDDAKQYVYIAVMDYLPISSTST [PLD5]
protein stability index [1]: 2.54 ± 0.95
protein stability index [2]: 2.76 ± 0.73

QEIATYRRLLEGEDAHLTQYKKEP [KRT17]
protein stability index [1]: 4.68 ± 0.19
protein stability index [2]: 4.82 ± 0.18

NYLIFSQKPEFQDLSVEERSFVEK [RHOBTB3]
protein stability index [1]: 3.61 ± 0.16
protein stability index [2]: 3.69 ± 0.27

EAAGSFTSSLAQPGAYYPYERTLG [IRX6]
protein stability index [1]: 3.24 ± 0.14
protein stability index [2]: 3.28 ± 0.42

ERTQLRLESLEDTHIMKGEDDALS [TRIB1]
protein stability index [1]: 5.27 ± 0.21
protein stability index [2]: 5.34 ± 0.41

MPALEGAPHTPPLPRRPRKGSSEL [RNF208]
protein stability index [1]: 5.11 ± 0.27
protein stability index [2]: 5.21 ± 0.22

ITCVSGAIVDLISRQYDKFLTHFI [FBXO33]
protein stability index [1]: 2.85 ± 0.53
protein stability index [2]: 3.13 ± 0.44

ETREYAPPSRGHGYRDYGHSRRHE [RBMY1A1]
protein stability index [1]: 4.58 ± 0.35
protein stability index [2]: 4.71 ± 0.13

HQMGVVHRDLKPENLLLASKLKGA [CAMK2A]
protein stability index [1]: 3.73 ± 0.21
protein stability index [2]: 3.82 ± 0.12

ARDRQPSDFKTDKEGGQAGSGQRV [ELOA2]
protein stability index [1]: 5.26 ± 0.33
protein stability index [2]: 5.26 ± 0.26

GTDEEEEEFIEEEDQEEEESTEGK [TRIM63]
protein stability index [1]: 5.71 ± 0.17
protein stability index [2]: 5.56 ± 0.24

DLLFIVDTMLEEVENKEKDSNMPH [CEP70]
protein stability index [1]: 2.29 ± 0.24
protein stability index [2]: 2.76 ± 0.38

TPEVAAAPKPDAAPSIDLFSTDAF [SNAP91]
protein stability index [1]: 4.75 ± 0.23
protein stability index [2]: 4.75 ± 0.12

KTSSSSKAGFTASPFTNLLNGSSQ [CDC14A]
protein stability index [1]: 3.46 ± 0.27
protein stability index [2]: 3.51 ± 0.31

GSSASTSPAPLDTCPSSSTASSIS [DYRK1B]
protein stability index [1]: 5.22 ± 0.12
protein stability index [2]: 5.3 ± 0.078

DRARRFEEALRKNTEEQLEIALAP [MTUS2]
protein stability index [1]: 4.9 ± 0.22
protein stability index [2]: 4.85 ± 0.28

LFTDLFDRKGYMFDYEYDWIGKQL [CSNK1G3]
protein stability index [1]: 2.24 ± 0.32
protein stability index [2]: 2.15 ± 0.3

FLYVTGHIKEILITAGGENVPPIP [ACSBG2]
protein stability index [1]: 2.78 ± 0.93
protein stability index [2]: 2.81 ± 1.1

EACMTHLHYKWIPVEDSHTADISS [DUSP5]
protein stability index [1]: 3.53 ± 0.23
protein stability index [2]: 3.63 ± 0.11

IGSSSEKEIDDVIDEIISLESSYN [TFE3]
protein stability index [1]: 4.37 ± 0.25
protein stability index [2]: 4.4 ± 0.22

LKEELAYLKKNHEEEMNALRGQVG [KRT17]
protein stability index [1]: 4.01 ± 0.36
protein stability index [2]: 4.05 ± 0.66

EGNECKKMDMSVLEISGIIMSRVN [PHTF1]
protein stability index [1]: 2.55 ± 0.37
protein stability index [2]: 2.46 ± 0.31

SSQKQHSFTSSDKTIKSFFPHSGK [C8orf76]
protein stability index [1]: 3.9 ± 0.085
protein stability index [2]: 4.15 ± 0.14

KEYTTRTQAPPSVILGVTNPFFAK [DENND6A]
protein stability index [1]: 2.81 ± 0.24
protein stability index [2]: 2.738 ± 0.021

EVAEQLELERIGPQHQAGSDSLLT [CNOT7]
protein stability index [1]: 4.9 ± 0.14
protein stability index [2]: 4.85 ± 0.15

SSSSGVLMVGPNFRVGKKIGCGNF [CSNK1G3]
protein stability index [1]: 2.71 ± 0.38
protein stability index [2]: 2.71 ± 0.21

PADFSLGSLPGPGQTSGAREPPQA [VENTX]
protein stability index [1]: 5.12 ± 0.2
protein stability index [2]: 5.16 ± 0.24

RPGPQSVPLQLSAHWQCGATLTQV [FCHO1]
protein stability index [1]: 2.21 ± 0.23
protein stability index [2]: 2.43 ± 0.2

MSALGSPVRAYDFLLKFLLVGDSD [RAB40B]
protein stability index [1]: 2.42 ± 0.38
protein stability index [2]: 2.13 ± 0.32

AIRRRNVRGEDSGRKPERRRLKTT [DAPK3]
protein stability index [1]: 4.644 ± 0.043
protein stability index [2]: 4.69 ± 0.9

PPPPPLPDPTPPEPEEEILGSDDE [SRPK2]
protein stability index [1]: 5.51 ± 0.23
protein stability index [2]: 5.63 ± 0.19

FPKNRVLEGVIDRYQQSKAAALKC [TRIM9]
protein stability index [1]: 2.78 ± 0.14
protein stability index [2]: 3.2 ± 0.19

AGTPGYLSPEVLRKDPYGKPVDMW [CAMK2D]
protein stability index [1]: 3.34 ± 0.5
protein stability index [2]: 3.25 ± 0.42

LQAALQVLELHHSKLDTTKALNLL [VPS39]
protein stability index [1]: 2.23 ± 0.27
protein stability index [2]: 2.29 ± 0.21

LMMCFILPTLVPWYFWGETFQNSV [SCD]
protein stability index [1]: 2.94 ± 0.69
protein stability index [2]: 3.24 ± 0.075

FLIPMLEMVPEKRASAGECLRHPW [SRPK2]
protein stability index [1]: 2.33 ± 0.26
protein stability index [2]: 2.2 ± 0.12

GWLPSHEGHLDDGGYTPDLKMSYS [RBMY1A1]
protein stability index [1]: 3.62 ± 0.15
protein stability index [2]: 3.5 ± 0.36

SLCVLVSTVGKLCRLINEDVNEQV [CEP70]
protein stability index [1]: 3.25 ± 0.48
protein stability index [2]: 2.96 ± 0.21

LALFSHLVNHVNIRLQAELEEGEN [SMG5]
protein stability index [1]: 2.5 ± 0.21
protein stability index [2]: 2.7 ± 0.44

SVILSVKFSPFGQWWASVGMDDFL [TLE6]
protein stability index [1]: 3.22 ± 0.46
protein stability index [2]: 3.02 ± 0.49

SDHEMREEEKLKAEEIRIKGKYNI [KCNK9]
protein stability index [1]: 5.11 ± 0.21
protein stability index [2]: 5.22 ± 0.3

AANVVSAKRNRLAPAHVDEQVFLY [ZBED1]
protein stability index [1]: 2.55 ± 0.12
protein stability index [2]: 2.47 ± 0.27

IQLGVTPPGYSAWIKEEAAERYLY [SLC6A17]
protein stability index [1]: 2.31 ± 0.25
protein stability index [2]: 2.36 ± 0.15

TKITSAFKYINTVISCTIFIVGMV [EDNRA]
protein stability index [1]: 2.91 ± 1.1
protein stability index [2]: 2.48 ± 1

CFGLQPGCLLPDGSRMMAVAALVV [NLN]
protein stability index [1]: 2.47 ± 0.23
protein stability index [2]: 2.75 ± 0.34

QVITQTGVPGQPLNFKAEPESETS [PTPRD]
protein stability index [1]: 5.18 ± 0.24
protein stability index [2]: 5.31 ± 0.25

ERILGPSHPDTSYYIRYRGAVYAD [FEM1A]
protein stability index [1]: 2.94 ± 0.2
protein stability index [2]: 2.92 ± 0.29

REAFPSWSSRSPQERSRVLNQVAD [ALDH8A1]
protein stability index [1]: 4.2 ± 0.33
protein stability index [2]: 4.233 ± 0.03

WEWNELIPQGICPVGRSWHSLTPV [KLHDC2]
protein stability index [1]: 2.16 ± 0.27
protein stability index [2]: 2.27 ± 0.21

LLLAHKADVNAQSSTGNTALTYAC [ANKRD17]
protein stability index [1]: 2.76 ± 0.18
protein stability index [2]: 2.57 ± 0.18

LLKLEQNTCSVITTLKGHEGSVAC [WDFY1]
protein stability index [1]: 2.84 ± 0.12
protein stability index [2]: 3.29 ± 0.32

EPPPPLHNNNNNCEENEQSLPPPA [BNIP3L]
protein stability index [1]: 5.51 ± 0.27
protein stability index [2]: 5.68 ± 0.13

ELKKLKNLEGNELQRHADEFLLDL [FUT8]
protein stability index [1]: 3.61 ± 0.25
protein stability index [2]: 3.59 ± 0.3

YWTKYYDFKNPIIEKYLRRQLTKP [OAS1]
protein stability index [1]: 1.94 ± 0.33
protein stability index [2]: 2.11 ± 0.19

KLMKILQPQDVDLALDSGASLLHL [RIPK4]
protein stability index [1]: 2.11 ± 0.12
protein stability index [2]: 2.52 ± 0.21

QWGTVCDDDFSIHAAHVVCRELGY [LOXL2]
protein stability index [1]: 2.47 ± 0.36
protein stability index [2]: 2.38 ± 0.39

AMPDPTVPDSDIKALTTLCDLADR [ESRRG]
protein stability index [1]: 5.11 ± 0.28
protein stability index [2]: 5.15 ± 0.16

WTLKLDGNLQLDCLAQGWKQYQQR [RTP4]
protein stability index [1]: 2.2 ± 0.26
protein stability index [2]: 2.55 ± 0.26

VTTEQLGAKMTERGSVARPTQGPE [PXN]
protein stability index [1]: 5.35 ± 0.17
protein stability index [2]: 5.14 ± 0.38

EECAKWLLLNNANPNLSNRRGSTP [RIPK4]
protein stability index [1]: 3.56 ± 0.17
protein stability index [2]: 3.71 ± 0.067

ERIDCQGIPPSSKDKLGVWVYKNK [KLHDC2]
protein stability index [1]: 3.75 ± 0.23
protein stability index [2]: 3.64 ± 0.34

KREAGNLTKATAPDQKSSGGRDS [SSNA1]
protein stability index (treatment: DMSO, c terminus: native): 5.07 ± 0.23
protein stability index (treatment: MLN4924 1 uM, 8 h, c terminus: native): 5.25 ± 0.17

SISKLSPFSEFFKLRFNRKKKGMY [PWWP2B]
protein stability index [1]: 2.06 ± 0.25
protein stability index [2]: 2.31 ± 0.19

SVWGYDLGLRSLIPAVLTVSMLGY [MYORG]
protein stability index [1]: 3.05 ± 0.29
protein stability index [2]: 3.06 ± 0.4
